According to PMC5487423 (2017):

T1: CCL8 (human, UniProt P80075 24-99)
T1 chain: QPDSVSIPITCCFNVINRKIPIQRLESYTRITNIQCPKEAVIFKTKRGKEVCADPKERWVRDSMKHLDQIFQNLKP

T2: CCL1 (human, UniProt P22362 24-96)
T2 chain: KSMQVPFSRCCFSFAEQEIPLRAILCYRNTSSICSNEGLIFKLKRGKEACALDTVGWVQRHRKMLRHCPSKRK

T3: CCL4L1_HUMAN (Homo sapiens)
T3 chain: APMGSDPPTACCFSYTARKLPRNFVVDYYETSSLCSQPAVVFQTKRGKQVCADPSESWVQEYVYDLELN

T4: CCL5 (human, UniProt P13501 24-91)
T4 chain: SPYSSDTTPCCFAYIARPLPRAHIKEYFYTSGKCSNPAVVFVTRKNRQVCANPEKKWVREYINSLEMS

T5: CCL24_HUMAN (Homo sapiens)
T5 chain: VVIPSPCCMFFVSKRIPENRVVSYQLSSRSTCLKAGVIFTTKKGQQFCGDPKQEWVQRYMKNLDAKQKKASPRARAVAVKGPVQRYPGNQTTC


Assays:
Test in all cases: BLI
CCL8 = biological target: T1, CCL8
CCL1 = biological target: T2, CCL1
CCL4L1_HUMAN = biological target: T3, CCL4L1_HUMAN
CCL5 = biological target: T4, CCL5
CCL24_HUMAN = biological target: T5, CCL24_HUMAN

Row | Binder | Kd (CCL8) | Kd (CCL1) | Kd (CCL4L1_HUMAN) | Kd (CCL5) | Kd (CCL24_HUMAN)
1 | P974_AMBCA, purified, C-terminal StrepII-8xHis tag (natural protein) ETGENTQQEEQDYDYGTDTCPFPVLANKTNKAKFVGCHQKCNGGDQKLTDGTACYVVERKVWDRMTPMLWYECPLGECKNGVCEDLRKKEDCRKGNGEEK | 2.6 nM | 71 nM |  |  | 
2 | P546_AMBCA, purified, C-terminal StrepII-8xHis tag (natural protein) ETGENTQQEEEDYDYGTDTCPFPVLANKTNKAKFVGCHQKCNGGDQKLTDGTACYVVERKVWDRMTPMLWYSCPLGECKNGVCEDLRKKEECRKGNGEEK | 1.3 nM |  | 8.9 nM |  | 
3 | P983_AMBCA, purified, C-terminal StrepII-8xHis tag (natural protein) ETGEDTGTEDDFDYGNTGCPFPVLGNYKSNMTKPVGCKNKCGSGYEVLNDTTPCYVIDQKVFNNMVPLRQYSKCPLGFCENGECKPNDQAEDCYKGREEQKGGGGGSGGGGSGGASAWSHPQFEKLEHHHHHHHH |  |  | 2.9 nM |  | 
4 | P1183_AMBTR, purified, C-terminal StrepII-8xHis tag (natural protein) ETGEAPKDDFEYDGGCPFVVLDNGTHVKPAGCSHLCNGAPETLDNIECYNVTEEVAKRMTPGIPYACWLGWCSKGECKRDNRTEVCYRGSEEE | 1100 nM |  |  |  | 
5 | P467_RHIPU, purified, C-terminal StrepII-8xHis tag (natural protein) ETGAEKSLDSDSSGEDYELWTQGCPFLVAENRTGFGTTVSCQHNCNGAIEKVPEGEPCYTIGEDGLGRMKLNLPYNCSLGECSGGVCVPNGRSDVCFKRTWEENNKAMA |  | 53 nM | 4.7 nM | 7.7 nM | 
6 | P985_AMBPA, purified, C-terminal StrepII-8xHis tag (natural protein) ETGDEESEELGASTDVDYEELDANCTCPAPALTSTRNNKHYPLGCIYNCSSYNCTIPDGTPCYVLTLGEVKEHLQIGSTVPNCTCGLCRNGTCVSNGTVEECFAVEEIEET |  | 8.3 nM | 21 nM |  | 41 nM
